B2: Replication Protein A (Q9V1Z1, Q9V1Y9, Q9V1Z0), His-tagged RPA complex (complex)
chain 1: MVNVKNRNILRYSKVVDMTVLTKDRIIEIIERKTGMSREEIEEEIRKIMEEDPYLSEQGAAALLAERLGIDLIEKEEVSLMRISELYPGMDPREVNVVGRVLKKYPPREYTRKDGSVGRVASLIIYDDSGRARVVLWDAKVSEYYNKIEVGDVIKVLDAQVKESLSGLPELHINFRARIILNPDDPRVEMIPPLEEVRVATYTRKKIKDIEAGDRFVEVRGTIAKVYRVLTYDACPECKKKVDYDEGLGVWICPEHGEVQPIKMTILDFGLDDGTGYIRVTLFGDDAEELLGVSPEEIAEKIKELEESGLTTKEAARKLAEDEFYNIIGREIVVRGNVIEDRFLGLILRASSWEDVDYRREIERIKEELEKLGVM
chain 2: MVIEMKKRMPATRLYIKDILEGYFVKSEGDFEPNYLITKYARKVYRAKIVGTVVREPLIAEDETYGKFQVDDGTGVIWVLGFRDDTKFAKLVRKGDLVQVIGKIAEWRDDKQILVEGVSKVHPNMWILHRYETLKEKIEHIKKAKIALEIYNQYGITAKSKVIAKNKGIEEELLEVIDELYGIMMEERSIEEPMEELLEEEIPEEKEENELLEKAKEDILNILRQKRTAISRKYILKKLGDKYDEETIDDAITELLAQGEIYEPETGYYKLL
chain 3: MEVQVRRRKPAVERKISEIREEDTRVSLIGRVIKVDKMDYMFWLDDGTGVAIIESESDLPKVGQVVRVIGRIIRNEEGIHIYAEVIQDFSDADLEALEEIRELERKLLPRLEGEIVW

Holding throughout (assay): SPR; RPA bound to 32mer ssDNA
For experiment [1], the target named is B2.
For experiment [2], the target named is B2.
Experiment [3] concerns the target T1, DNA Polymerase D (Q9V2F3, Q9V2F4), HIS-tagged complex (Pyrococcus abyssi, UniProt Q9V2F3 1-619; Q9V2F4 1-1455).
The target in experiment [4] is T1, DNA Polymerase D (Q9V2F3, Q9V2F4), …. This is another data set of the same source.

B1: Primase small subunit P41 (Q9V292), HIS-tagged (natural protein)
chain: MLLREVTKEERKEFYSNEWNAKQIPDFILQNLDKREFGFDHTGEGPSDRKNSYTDVRDLEDYIKATAPYAVYSSVAFYEKPQEMEGWLGAELVFDIDAKDLPLRRCNHEPGKVCPICLNDAKEIARDTLIVLKEELGFEDVHVVYSGRGYHIRVMDGWALSLDSKSRERILSFISASEIEDHSEFRKMLLERRGWFVLNHGYPRVFRLRFGYFILRVKVEHLINFGIRKNIAKRILDNKETIYEEFVRKGILAAFPDGVGIESLAKLFALSTRFSKAYFDGRVTVDLKRILRLPSTLHSKVGLIAKYIGNNERDVMRFNPFKHAVPKFRRKEVKEEYKRFLEENF
The molecule B1 displayed a koff in experiment [1] of 0.000454 s⁻¹. For the same molecule, in experiment [2], the Kd was 52 nM.
In experiment [3], B2 had a dissociation rate constant (koff) of 0.000202 s⁻¹. In experiment [4], this molecule had a Kd of 51 nM.

The values are drawn from publication PMC3820547 (2013).
